Reference: publication PMC2793005, “Dissecting the Role of Critical Residues and Substrate Preference of a Fatty Acyl-CoA Synthetase (FadD13) of Mycobacterium tuberculosis” (PLoS ONE, 2009)

Target: the molecule itself
Assay: native gel or EMSA

Protein	stoichiometry N	binding result
FadD13 mutant A302G, N-terminal 6x histidine tagged (enzyme, not shown: His6, N-terminal, kept) MKNIGWMLRQRATVSPRLQAYVEPSTDVRMTYAQMNALANRCADVLTALGIAKGDRVALLMPNSVEFCCLFYGAAKLGAVAVPINTRLAAPEVSFILSDSGSKVVIYGAPSAPVIDAIRAQADPPGTVTDWIGADSLAERLRSAAADEPAVECGGDDNLFIMYTSGTTGHPKGVVHTHESVHSAASSWASTIDVRYRDRLLLPLPMFHVAALTTVIFSAMRGVTLISMPQFDATKVWSLIVEERVCIGGAVPAILNFMRQVPEFAELDAPDFRYFITGGAPMPEALIKIYAAKNIEVVQGYGLTESCGGGTLLLSEDALRKAGSAGRATMFTDVAVRGDDGVIREHGEGEVVIKSDILLKEYWNRPEATRDAFDNGWFRTGDIGEIDDEGYLYIKDRLKDMIISGGENVYPAEIESVIIGVPGVSEVAVIGLPDEKWGEIAAAIVVADQNEVSEQQIVEYCGTRLARYKLPKKVIFAEAIPRNPTGKILKTVLREQYSATVPK	2	
FadD13 mutant D382A, N-terminal 6x histidine tagged (enzyme, not shown: His6, N-terminal, kept) MKNIGWMLRQRATVSPRLQAYVEPSTDVRMTYAQMNALANRCADVLTALGIAKGDRVALLMPNSVEFCCLFYGAAKLGAVAVPINTRLAAPEVSFILSDSGSKVVIYGAPSAPVIDAIRAQADPPGTVTDWIGADSLAERLRSAAADEPAVECGGDDNLFIMYTSGTTGHPKGVVHTHESVHSAASSWASTIDVRYRDRLLLPLPMFHVAALTTVIFSAMRGVTLISMPQFDATKVWSLIVEERVCIGGAVPAILNFMRQVPEFAELDAPDFRYFITGGAPMPEALIKIYAAKNIEVVQGYALTESCGGGTLLLSEDALRKAGSAGRATMFTDVAVRGDDGVIREHGEGEVVIKSDILLKEYWNRPEATRDAFDNGWFRTGAIGEIDDEGYLYIKDRLKDMIISGGENVYPAEIESVIIGVPGVSEVAVIGLPDEKWGEIAAAIVVADQNEVSEQQIVEYCGTRLARYKLPKKVIFAEAIPRNPTGKILKTVLREQYSATVPK		binds
